Values of other authors as cited in article PMC3000922.

Target: integrin β3 cytoplasmic tail (Homo sapiens) (UniProt P05106)
Test: SPR

Chain of UniProt P05106 (P05106 742-788): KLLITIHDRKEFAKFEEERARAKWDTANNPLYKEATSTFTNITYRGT

Kd: 7 µM
Substance: integrin αIIb cytoplasmic tail (from UniProt P08514)
